# From PMC3161067, “Combined SAXS/EM Based Models of the S. elongatus Post-Translational Circadian Oscillator and its Interactions with the Output His-Kinase SasA” (PLoS ONE, 2011)
# T1: KaiBC complex (KaiB with wild type KaiC) (S. elongatus, UniProt Q79PF5 1-102; Q79PF4 1-519)
# T1 construct: KaiB, Synechococcus elongatus, as m2; wild type KaiC, Synechococcus elongatus, as m3; KaiC phosphorylation state varies in the cycling reaction; also called KaiB-KaiC; source: formed in the in vitro cycling reaction from purified proteins; copies: + 6
# T1 sequence (looked up) 1: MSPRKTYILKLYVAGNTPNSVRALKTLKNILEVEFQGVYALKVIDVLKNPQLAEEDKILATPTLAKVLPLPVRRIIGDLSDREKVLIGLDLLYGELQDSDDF
# T1 sequence (looked up) 2: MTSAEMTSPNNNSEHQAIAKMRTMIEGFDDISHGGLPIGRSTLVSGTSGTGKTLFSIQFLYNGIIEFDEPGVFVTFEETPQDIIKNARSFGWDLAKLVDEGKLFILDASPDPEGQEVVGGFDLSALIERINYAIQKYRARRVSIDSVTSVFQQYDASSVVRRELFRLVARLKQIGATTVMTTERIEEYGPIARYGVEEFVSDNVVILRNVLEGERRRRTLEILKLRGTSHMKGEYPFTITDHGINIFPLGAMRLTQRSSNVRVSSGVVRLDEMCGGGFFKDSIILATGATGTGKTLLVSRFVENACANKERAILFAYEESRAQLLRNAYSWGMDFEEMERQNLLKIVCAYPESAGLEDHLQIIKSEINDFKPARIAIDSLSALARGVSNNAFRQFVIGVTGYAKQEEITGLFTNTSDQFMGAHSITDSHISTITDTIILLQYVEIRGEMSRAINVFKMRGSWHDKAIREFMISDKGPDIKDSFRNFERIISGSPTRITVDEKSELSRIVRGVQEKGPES
# B1: wild type KaiC (S. elongatus) (natural protein, UniProt Q79PF4 1-519, looked up)
# chain: MTSAEMTSPNNNSEHQAIAKMRTMIEGFDDISHGGLPIGRSTLVSGTSGTGKTLFSIQFLYNGIIEFDEPGVFVTFEETPQDIIKNARSFGWDLAKLVDEGKLFILDASPDPEGQEVVGGFDLSALIERINYAIQKYRARRVSIDSVTSVFQQYDASSVVRRELFRLVARLKQIGATTVMTTERIEEYGPIARYGVEEFVSDNVVILRNVLEGERRRRTLEILKLRGTSHMKGEYPFTITDHGINIFPLGAMRLTQRSSNVRVSSGVVRLDEMCGGGFFKDSIILATGATGTGKTLLVSRFVENACANKERAILFAYEESRAQLLRNAYSWGMDFEEMERQNLLKIVCAYPESAGLEDHLQIIKSEINDFKPARIAIDSLSALARGVSNNAFRQFVIGVTGYAKQEEITGLFTNTSDQFMGAHSITDSHISTITDTIILLQYVEIRGEMSRAINVFKMRGSWHDKAIREFMISDKGPDIKDSFRNFERIISGSPTRITVDEKSELSRIVRGVQEKGPES
# notes: KaiC, Synechococcus elongatus; C-terminal residue S519; Its phosphorylation state varies in the cycling reaction; also called wt-KaiC; TST; source: E. coli BL21, purified
# B2: KaiC T432E/S431E double mutant (natural protein, S. elongatus, UniProt Q79PF4 1-519, looked up)
# chain: MTSAEMTSPNNNSEHQAIAKMRTMIEGFDDISHGGLPIGRSTLVSGTSGTGKTLFSIQFLYNGIIEFDEPGVFVTFEETPQDIIKNARSFGWDLAKLVDEGKLFILDASPDPEGQEVVGGFDLSALIERINYAIQKYRARRVSIDSVTSVFQQYDASSVVRRELFRLVARLKQIGATTVMTTERIEEYGPIARYGVEEFVSDNVVILRNVLEGERRRRTLEILKLRGTSHMKGEYPFTITDHGINIFPLGAMRLTQRSSNVRVSSGVVRLDEMCGGGFFKDSIILATGATGTGKTLLVSRFVENACANKERAILFAYEESRAQLLRNAYSWGMDFEEMERQNLLKIVCAYPESAGLEDHLQIIKSEINDFKPARIAIDSLSALARGVSNNAFRQFVIGVTGYAKQEEITGLFTNTSDQFMGAHSITDSHIEEITDTIILLQYVEIRGEMSRAINVFKMRGSWHDKAIREFMISDKGPDIKDSFRNFERIISGSPTRITVDEKSELSRIVRGVQEKGPES
# modifications: phosphoserine at 320 (in the A and F subunits of the crystal structure)
# notes: KaiC, Synechococcus elongatus, with S431E and T432E; the tag is therefore uncertain; also called KaiC-ee; S431E/T432E
# B3: KaiC T432A/S431A double mutant (natural protein, S. elongatus, UniProt Q79PF4 1-519, looked up)
# chain: MTSAEMTSPNNNSEHQAIAKMRTMIEGFDDISHGGLPIGRSTLVSGTSGTGKTLFSIQFLYNGIIEFDEPGVFVTFEETPQDIIKNARSFGWDLAKLVDEGKLFILDASPDPEGQEVVGGFDLSALIERINYAIQKYRARRVSIDSVTSVFQQYDASSVVRRELFRLVARLKQIGATTVMTTERIEEYGPIARYGVEEFVSDNVVILRNVLEGERRRRTLEILKLRGTSHMKGEYPFTITDHGINIFPLGAMRLTQRSSNVRVSSGVVRLDEMCGGGFFKDSIILATGATGTGKTLLVSRFVENACANKERAILFAYEESRAQLLRNAYSWGMDFEEMERQNLLKIVCAYPESAGLEDHLQIIKSEINDFKPARIAIDSLSALARGVSNNAFRQFVIGVTGYAKQEEITGLFTNTSDQFMGAHSITDSHIAAITDTIILLQYVEIRGEMSRAINVFKMRGSWHDKAIREFMISDKGPDIKDSFRNFERIISGSPTRITVDEKSELSRIVRGVQEKGPES
# notes: KaiC, Synechococcus elongatus, with S431A and T432A; the tag is therefore uncertain; also called KaiC-aa; S431A/T432A
# Legend:
# [1] = molecular target: the molecule itself; experiment: SAXS; individual proteins in solution, 0.5-2.0 mg/mL, 10 or 20°C; ab initio envelopes (DAMMIN, GASBOR) compared with crystal structures
# [2] = molecular target: T1, KaiBC complex (KaiB with wild type KaiC); experiment: negative-stain EM; Kai complexes of the in vitro cycling reaction with 1x or 4x KaiA; reconstruction of class IV particles at ~30 Å; settings: both partners purified
# [3] = molecular target: B3; experiment: SAXS; binary complexes in solution, conditions set by native PAGE, 0.5-2.0 mg/mL, 10 or 20°C; ab initio envelopes without symmetry; settings: both partners purified
# [4] = molecular target: the molecule itself; experiment: negative-stain EM; Kai complexes of the in vitro cycling reaction with 1x or 4x KaiA; reconstruction of class IV particles at ~30 Å
# [5] = molecular target: the molecule itself; experiment: crystal structure; KaiC-ee with ATPγS, 3.0 Å, molecular replacement with PDB 3DVL
# [6] = molecular target: the molecule itself; experiment: negative-stain EM; SasA:KaiC-aa complex, uranyl formate 0.75%, class averages and 3D reconstruction (C1) at 23.5 Å
# [7] = molecular target: B2; experiment: SAXS; binary complexes in solution, conditions set by native PAGE, 0.5-2.0 mg/mL, 10 or 20°C; ab initio envelopes without symmetry; settings: both partners purified
# [8] = molecular target: B3; experiment: negative-stain EM; SasA:KaiC-aa complex, uranyl formate 0.75%, class averages and 3D reconstruction (C1) at 23.5 Å; settings: both partners purified
# [9] = molecular target: B1; experiment: negative-stain EM; Kai complexes of the in vitro cycling reaction with 1x or 4x KaiA; reconstruction of class IV particles at ~30 Å; settings: both partners purified
binder,measurement,setting,value
"KaiA (S. elongatus) (natural protein, UniProt Q79PF6 1-284, looked up, KaiA, Synechococcus elongatus; also called KaiA dimer; wt KaiA; source: E. coli BL21, GST fusion, purified) MLSQIAICIWVESTAILQDCQRALSADRYQLQVCESGEMLLEYAQTHRDQIDCLILVAANPSFRAVVQQLCFEGVVVPAIVVGDRDSEDPDEPAKEQLYHSAELHLGIHQLEQLPYQVDAALAEFLRLAPVETMADHIMLMGANHDPELSSQQRDLAQRLQERLGYLGVYYKRDPDRFLRNLPAYESQKLHQAMQTSYREIVLSYFSPNSNLNQSIDNFVNMAFFADVPVTKVVEIHMELMDEFAKKLRVEGRSEDILLDYRLTLIDVIAHLCEMYRRSIPRET",stoichiometry N,[1],2
same,binding result,[2],binds
same,stoichiometry N,[3],1 KaiA dimer per KaiC hexamer
B1,stoichiometry N,[4],6
B2,stoichiometry N,[5],6
B3,stoichiometry N,[6],6
"SasA (S. elongatus His kinase) (natural protein, UniProt Q06904 1-387, looked up, SasA, adaptive-response sensory His kinase, Synechococcus elongatus; N-terminal sensory domain is residues 1-97; its expression and purification are not described; also called full-length SasA; wt SasA) MGESLSPQALAQPLLLQLFVDTRPLSQHIVQRVKNILAAVEATVPISLQVINVADQPQLVEYYRLVVTPALVKIGPGSRQVLSGIDLTDQLANQLPQWLVQQEAFFADREPPEVNIPFTELGQPETPALQQADAFFQLQQQYADLSERTKFLEQVIALVAHDLRNPLTAALLAVDTIQIRSQSFSVATAKEMQGLCSLFDQARSQLREIERMIAEILEATRHSGESLRINPREVVFEPLLQQVLEQLHERWRSKQQQLITDVPGDLPTLYADPDRLRQVLVNLLDNAIKYTPPGGTITIAALHRTSQKVQISISDTGSGIPRDQLSVIFKNLVRLSRDSSQEGYGIGLSVCQRIVQAHFGRIWVASELGQGSTFHFTMPVYRYTMPC",stoichiometry N,[7],2 SasA dimers per KaiC hexamer
same,stoichiometry N,[8],2 binding sites per KaiC hexamer
"KaiB (S. elongatus) (natural protein, UniProt Q79PF5 1-102, looked up, KaiB, Synechococcus elongatus; Tetramer free in solution; The crystal model used for SAXS (PDB 2QKE) is KaiB of another species (T. elongatus); also called KaiB tetramer; wt KaiB; source: E. coli BL21, GST fusion, purified) MSPRKTYILKLYVAGNTPNSVRALKTLKNILEVEFQGVYALKVIDVLKNPQLAEEDKILATPTLAKVLPLPVRRIIGDLSDREKVLIGLDLLYGELQDSDDF",stoichiometry N,[1],4
same,binding result,[9],binds
same,stoichiometry N,[7],2 KaiB dimers per KaiC hexamer
